The record followed here is patent US20190248902A1 (published 2019).

Substitutions are numbered along the chain they refer to.

T1: recombinant, soluble human ASGR-1 (human, UniProt P07306 62-291)
T1 construct: biotinylated in the binning assay; also called soluble huASGR-1; Soluble ASGR-1 (Amgen)
T1 sequence: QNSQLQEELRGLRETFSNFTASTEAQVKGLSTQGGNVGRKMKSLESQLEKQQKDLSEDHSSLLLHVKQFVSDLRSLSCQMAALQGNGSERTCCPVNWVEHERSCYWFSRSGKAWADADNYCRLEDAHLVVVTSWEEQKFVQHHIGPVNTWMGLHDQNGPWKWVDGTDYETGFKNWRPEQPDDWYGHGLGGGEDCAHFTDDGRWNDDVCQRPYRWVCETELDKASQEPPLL

B1: 52G11 (antibody, V domains shown)
VH: QVQLVQSGAEVKKPGASVKVSCKASGYTFTGYYLHWVRQAPGQGLEWMGWINPNRNGTNYAQKFQGRVTMTRDTSISTAFMELSRLRSDDTAVYYCARDGTSSFDYWGQGTLVTVSS
VL: DIQMTQSPSSVSASVGDRVTITCRASQGISKWLAWYQQKPGKAPKLLLYAASSLQSGVPSRFSASGSGTDFTLTISSLQPEDFATYYCQQANSFPFTFGPGTKVDVK
notes: hybridoma mAb
B2: 56E5 (antibody, V domains shown)
VH: B1 VH with K23Q, Y33H, L34M, R55N, G57A, F80Y, S84R, Y95H
VL: B1 VL with S30R, L48I, A64G, V106I
notes: hybridoma mAb
B3: 70D1 (antibody, V domains shown)
VH: B1 VH with Y33H, L34M, R55S, G57A, F80Y, G100S, T101I, F104W
VL: B1 VL with I29V, K31R, L48I, A64G, L73V, V106I
notes: hybridoma mAb
B4: 57A7 (antibody, V domains shown)
VH: B1 VH with Y33H, L34I, G44D, R55N, F80Y, T101R, S103G
VL: B1 VL with K31R, K45N, L48I, S53N, A64G, V106I
notes: hybridoma mAb
B5: 55B1 (antibody, V domains shown)
VH: B1 VH with L34F, N52H, R55N, G57A, F80Y, R98K, T101R
VL: B1 VL with G28V, K31R, K45N, L48I, A64G, V106L
notes: hybridoma mAb
B6: 53F7 (antibody, V domains shown)
VH: B1 VH with Y33H, L34M, R55N, F80Y, S84N, R87T
VL: B1 VL with T5S, K31R, K45N, L48I, A64G, T85I, V106I
notes: hybridoma mAb
B7: 53F2 (antibody, V domains shown)
VH: B1 VH with K63N, F80Y, R87K
VL: B1 VL with K45N, R61K, A64G
notes: hybridoma mAb
B8: 148E10 (antibody, V domains shown)
VH: QVQLVESGGGVVQPGRSLRLSCAASGFTFSSYGMHWVRQAPGKGLEWVAVIWFDGSNKYYVDSVKDRFTISRDNSKNTLYLQMNSLRAEDTAVYYCARDRVEGSGTPYYYYGMDVWGQGTTVTVSS
VL: SYELTQPPSVSVSPGQTASITCSGDKLGNKYVCWYQQRPGHAAVLIIYQDSKRPSGIPERFSGSNSGNTATLTISGTQAMDEADYFCQAWDRNTYVVFGGGTKLTVL
notes: hybridoma mAb
B9: 154F4 (antibody, V domains shown)
VH: QVQLVESGGGVVQPGRSLRLSCAASGFTFSSYGMHWVRQAPGKGLEWVAVIWYDGSNKYYADSVKGRFTISRDNSKNTLYLQMNSLRAEDTAVYYCAREDSYCSGTSCPYYYYYGMDVWGQGTTVTVSS
VL: SYELTQPPSVSVSPGQTASITCSGDKLGNKYVCWYQQKPGQSPVEVIYKDSKRPSGIPERFSGSNSGNTGTLTISGTQAMDEADYYCQAWDNSTLVFGGGTKLTVL
notes: hybridoma mAb
B10: 27E7 (antibody, V domains shown)
VH: B9 VH with G105S
VL: B9 VL with V32A, K49Q, S55L, G70A, N92S, L95V
notes: hybridoma mAb

One assay deals with T1, recombinant, soluble human ASGR-1. Briefly: Octet BLI dissociation, pH 7.4 minus calcium. The procedure: (§1) The relative dissociation of ASGR-1 from antibodies was measured using a label-free assay on an OctetHTX instrument (Fortebio). Antibody samples were captured on anti-HuFc kinetic biosensors (ForteBio cat #18-5064) at 5 ug/mL in assay buffer (10 mM Tris, 0.1% Triton, 150 mM NaCl, 1 mg/mL BSA, 1 mM CaCl2, pH7.4) for three minutes. A one minute baseline stabilization step was performed in assay buffer. Soluble ASGR-1 (Amgen) at 6 ug/ml in assay buffer was added and association to the antibodies was monitored for two minutes. Subsequent dissociation of ASGR-1 from the antibodies was performed by incubating the ASGR-1-mAb complexes for 10 minutes under each of the following conditions:
(§2) The binding signal at the end of the 2 minute association phase for each dissociation experiment was set to 100% and used to represent the maximal level of ASGR-1 binding. After 1 minute of dissociation, the percentage of ASGR-1 remaining bound was calculated. The lower the percent remaining at a given time point indicates increased levels of dissociation in response to the test conditions (ie. different pH and/or calcium concentrations). The change in the percentage of ASGR-1 remaining bound in response to each test condition relative to the percent remaining in the control conditions (ie. pH 7.4+calcium) was determined. Cut-offs for an antibody to be categorized as being sensitive to a particular condition were set to >10% (ie. if >10% of the ASGR-1 dissociates from the antibody under a particular test condition compared to control condition, it was deemed sensitive to that condition). The analysis was done using the 1 minute dissociation time point (except for mAb 149A1 which was binned based on the 4 minute dissociation time point). Using this analysis, the ASGR-1-binding, receptor-ligand blocking antibodies were separated into groups according to their dissociation profiles in response to pH and calcium (Table 7.3). Antibodies belonging to each category were observed.
In the case of B1, the “% Change Compared to pH 7.4 + Calcium” value came to 15%.

With B2, the “% Change Compared to pH 7.4 + Calcium” value amounted to 1%.

Turning to B3, the “% Change Compared to pH 7.4 + Calcium” value was found to be 17%.

As to B4, the “% Change Compared to pH 7.4 + Calcium” value was 13%.

For B5, the “% Change Compared to pH 7.4 + Calcium” value was 5%.

Consider B6, for which the “% Change Compared to pH 7.4 + Calcium” value turned out to be 9%.

Take B7: the “% Change Compared to pH 7.4 + Calcium” value was found to be 15%.

Consider B8, for which the “% Change Compared to pH 7.4 + Calcium” value was determined as 7%.

For B9, the “% Change Compared to pH 7.4 + Calcium” value worked out at 10%.

As for B10, the “% Change Compared to pH 7.4 + Calcium” value was found to be 20%.

The next assay has the same target. The assay can be described thus: Octet BLI dissociation, pH 5.6 minus calcium. Here is the method: as §1, §2
As for B1, the “% Change Compared to pH 7.4 + Calcium” value turned out to be 13%.

In the case of B2, the “% Change Compared to pH 7.4 + Calcium” value was -1%.

On to B3, for which the “% Change Compared to pH 7.4 + Calcium” value turned out to be 29%.

Take B4: the “% Change Compared to pH 7.4 + Calcium” value came to 29%.

On to B5, for which the “% Change Compared to pH 7.4 + Calcium” value amounted to 4%.

In the case of B6, the “% Change Compared to pH 7.4 + Calcium” value was determined as 13%.

Take B7: the “% Change Compared to pH 7.4 + Calcium” value was determined as 13%.

Consider B8, for which the “% Change Compared to pH 7.4 + Calcium” value was determined as 33%.

B9: the “% Change Compared to pH 7.4 + Calcium” value was 67%.

For B10, the “% Change Compared to pH 7.4 + Calcium” value is 46%.

The target is the same in a further assay. The assay can be described thus: Octet BLI dissociation, pH 5.6 plus calcium. Here is the method: as §1, §2
Background: BLI is a label-free optical method that tracks binding on a fibre tip over time.
For the molecule B1, the “% Change Compared to pH 7.4 + Calcium” value was 1%.

For B2, the “% Change Compared to pH 7.4 + Calcium” value is -6%.

Regarding B3, the “% Change Compared to pH 7.4 + Calcium” value was 12%.

For the molecule B4, the “% Change Compared to pH 7.4 + Calcium” value was found to be 13%.

In the case of B5, the “% Change Compared to pH 7.4 + Calcium” value is -2%.

As to B6, the “% Change Compared to pH 7.4 + Calcium” value turned out to be 3%.

Turning to B7, the “% Change Compared to pH 7.4 + Calcium” value amounted to 1%.

For B8, the “% Change Compared to pH 7.4 + Calcium” value turned out to be 19%.

B9: the “% Change Compared to pH 7.4 + Calcium” value worked out at 41%.

For the molecule B10, the “% Change Compared to pH 7.4 + Calcium” value was 35%.
